In patent US20130022605A1 one finds ND50, L929 cytotoxicity without TNF-α (agonism) data, which are given here for two substances.

The assay addresses mouse TNFR1 on L929 cells (mouse) (UniProt P25118). Description: cell-based or functional assay.

mouse TNFR1 on L929 cells (mouse), sequence (P25118 30-454): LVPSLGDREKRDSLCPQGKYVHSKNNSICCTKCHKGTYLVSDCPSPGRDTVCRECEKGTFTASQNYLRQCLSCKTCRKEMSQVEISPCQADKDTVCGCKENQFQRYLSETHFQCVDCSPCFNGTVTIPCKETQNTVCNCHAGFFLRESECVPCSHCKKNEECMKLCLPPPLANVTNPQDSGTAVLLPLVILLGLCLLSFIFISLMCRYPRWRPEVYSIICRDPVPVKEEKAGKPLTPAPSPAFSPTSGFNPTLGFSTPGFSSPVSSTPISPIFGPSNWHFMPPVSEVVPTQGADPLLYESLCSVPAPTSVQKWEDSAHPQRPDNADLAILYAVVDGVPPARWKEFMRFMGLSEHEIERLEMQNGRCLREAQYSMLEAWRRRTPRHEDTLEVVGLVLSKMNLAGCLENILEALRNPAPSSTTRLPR

“anti-TNFR1 antibody AF-425-PB (R&D Systems)” registered an ND50, L929 cytotoxicity without TNF-α (agonism) of 100 pM.
“anti-TNFR1 antibody MAB430 (R&D Systems)” gave an ND50, L929 cytotoxicity without TNF-α (agonism) of 10000 pM.
